Assay results taken from patent publication US20220010021A1 (Sanofi, published 2022).
Where a chain is given by its changes, count along the chain named.

B1: Ab0305 (antibody, IgG4, V domains shown)
VH: QVTLKESGPVLVKPTETLTLTCTVSGFSLNNARVGVSWIRQPPGKALEWLAHIFSNDEKSYSTSLKSRLTISKDTSKSQVVLTMTNMDPVDTATYYCARSVVTGGYYYEGMDVWGQGTTVTVSS
VL: SYVLTQPPSVSVAPGQTARITCGGSNIGSESVHWYQQKPGQAPVLVVYYESDRPSGIPERFSGSNSGNTATLTISRVEAGDEADYYCQVWTGNSDHVVFGGGTKLTVLG
B2: Ab0318 (antibody, IgG4, V domains shown)
VH: B1 VH
VL: B1 VL with Y49D, N93E
B3: Ab0329 (antibody, IgG4, V domains shown)
VH: B1 VH
VL: B1 VL with E50S, T91A, N93S
B4: Ab0320 (antibody, IgG4, V domains shown)
VH: B1 VH
VL: B1 VL with N93E
B5: Ab0328 (antibody, IgG4, V domains shown)
VH: B1 VH
VL: B1 VL with E50A, T91A, N93S
B6: Ab0319 (antibody, IgG4, V domains shown)
VH: B1 VH
VL: B1 VL with S25N, N93E
B7: Ab0315 (antibody, IgG4, V domains shown)
VH: B1 VH
VL: B1 VL with S25N, E50D, N93E
B8: Ab0395 (antibody, IgG4, V domains shown)
VH: B1 VH with F54W
VL: SYVLTQPPSVSVAPGQTARITCGGNNIGSESVHWYQQKPGQAPVLVVDDSDRPSGIPERFSGSNSGNTATLTISRVEAGDEADYYCQVFDGNSAHVVFGGGTKLTVLG
B9: Ab0316 (antibody, IgG4, V domains shown)
VH: B1 VH
VL: B1 VL with E50D, N93E
B10: Ab0317 (antibody, IgG4, V domains shown)
VH: B1 VH
VL: B1 VL with S25N, Y49D, N93E
B11: Ab0376 (antibody, IgG4, V domains shown)
VH: B1 VH with F54W
VL: B8 VL with S93C, A94E, H95C
B12: Ab0400 (antibody, IgG4, V domains shown)
VH: B1 VH with H52S, F54W
VL: B8 VL with S93C, H95C
B13: Ab0371 (antibody, IgG4, V domains shown)
VH: B1 VH with H52W
VL: B8 VL with F89H, A94E
B14: Ab0398 (antibody, IgG4, V domains shown)
VH: B1 VH with H52S, F54W
VL: B8 VL with S1C, S93C
B15: Ab0406 (antibody, IgG4, V domains shown)
VH: B1 VH with H52S, F54W
VL: B8 VL with S1C, S93C, A94T
B16: Ab0403 (antibody, IgG4, V domains shown)
VH: B1 VH with H52W
VL: B8 VL with S1C, S93C
B17: Ab0381 (antibody, IgG4, V domains shown)
VH: B1 VH with F54W
VL: B8 VL with S93C, A94V, H95C
B18: Ab0402 (antibody, IgG4, V domains shown)
VH: B1 VH with H52W
VL: B8 VL with S93C, H95C
B19: Ab0382 (antibody, IgG4, V domains shown)
VH: B1 VH with H52S, F54W
VL: B8 VL with S93C, A94V, H95C
B20: Ab0375 (antibody, IgG4, V domains shown)
VH: B1 VH with F54W
VL: B8 VL with S1C, S93C, A94E
B21: Ab0405 (antibody, IgG4, V domains shown)
VH: B1 VH with H52S, F54W
VL: B8 VL with A94T
B22: Ab0372 (antibody, IgG4, V domains shown)
VH: B1 VH with H52W
VL: B8 VL with S1C, F89H, S93C, A94E
B23: Ab0380 (antibody, IgG4, V domains shown)
VH: B1 VH with H52S, F54W
VL: B8 VL with S1C, S93C, A94V
B24: Ab0379 (antibody, IgG4, V domains shown)
VH: B1 VH with F54W
VL: B8 VL with S1C, S93C, A94V
B25: Ab0408 (antibody, IgG4, V domains shown)
VH: B1 VH with H52W
VL: B8 VL with A94T
B26: Ab0392 (antibody, IgG4, V domains shown)
VH: B1 VH with H52W
VL: B8 VL with A94S
B27: Ab0389 (antibody, IgG4, V domains shown)
VH: B1 VH with H52S, F54W
VL: B8 VL with S1C, S93C, A94S
B28: Ab0399 (antibody, IgG4, V domains shown)
VH: B1 VH with F54W
VL: B8 VL with S93C, H95C
B29: Ab0393 (antibody, IgG4, V domains shown)
VH: B1 VH with H52W
VL: B8 VL with S93C, A94S, H95C
B30: Ab0396 (antibody, IgG4, V domains shown)
VH: B1 VH with H52S, F54W
VL: B8 VL
B31: Ab0404 (antibody, IgG4, V domains shown)
VH: B1 VH with F54W
VL: B8 VL with A94T
B32: Ab0391 (antibody, IgG4, V domains shown)
VH: B1 VH with H52S, F54W
VL: B8 VL with S93C, A94S, H95C
B33: Ab0390 (antibody, IgG4, V domains shown)
VH: B1 VH with F54W
VL: B8 VL with S93C, A94S, H95C
B34: Ab0401 (antibody, IgG4, V domains shown)
VH: B1 VH with H52W
VL: B8 VL
B35: Ab0373 (antibody, IgG4, V domains shown)
VH: B1 VH with H52W
VL: B8 VL with F89H, S93C, A94E, H95C
B36: Ab0374 (antibody, IgG4, V domains shown)
VH: B1 VH with F54W
VL: B8 VL with A94E
B37: Ab0377 (antibody, IgG4, V domains shown)
VH: B1 VH with F54W
VL: B8 VL with A94V
B38: Ab0383 (antibody, IgG4, V domains shown)
VH: B1 VH with H52W
VL: B8 VL with A94V
B39: Ab0394 (antibody, IgG4, V domains shown)
VH: B1 VH with H52W
VL: B8 VL with S1C, S93C, A94S
B40: Ab0378 (antibody, IgG4, V domains shown)
VH: B1 VH with H52S, F54W
VL: B8 VL with A94V
B41: Ab0410 (antibody, IgG4, V domains shown)
VH: B1 VH
VL: B8 VL with F89Y, A94S
B42: Ab0397 (antibody, IgG4, V domains shown)
VH: B1 VH with F54W
VL: B8 VL with S1C, S93C
B43: Ab0331 (antibody, human IgG4 S228P, lambda)
heavy: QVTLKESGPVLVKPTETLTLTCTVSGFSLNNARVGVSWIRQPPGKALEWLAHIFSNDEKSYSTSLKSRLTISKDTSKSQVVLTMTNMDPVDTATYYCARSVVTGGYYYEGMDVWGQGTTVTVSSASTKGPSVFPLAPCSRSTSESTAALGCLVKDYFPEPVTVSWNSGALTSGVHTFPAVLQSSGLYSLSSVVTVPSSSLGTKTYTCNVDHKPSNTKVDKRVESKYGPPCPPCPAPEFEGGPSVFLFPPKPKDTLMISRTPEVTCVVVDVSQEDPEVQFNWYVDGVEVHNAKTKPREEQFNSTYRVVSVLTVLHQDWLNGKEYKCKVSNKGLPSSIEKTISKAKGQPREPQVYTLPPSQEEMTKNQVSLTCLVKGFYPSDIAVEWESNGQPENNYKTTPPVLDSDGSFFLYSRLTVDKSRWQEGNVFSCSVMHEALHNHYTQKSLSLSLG
light: SYVLTQPPSVSVAPGQTARITCGGSNIGSESVHWYQQKPGQAPVLVVYSESDRPSGIPERFSGSNSGNTATLTISRVEAGDEADYYCQVWEGESDHVVFGGGTKLTVLGQPKANPTVTLFPPSSEELQANKATLVCLISDFYPGAVTVAWKADGSPVKAGVETTKPSKQSNNKYAASSYLSLTPEQWKSHRSYSCQVTHEGSTVEKTVAPTECS
B44: Ab0335 (antibody, human IgG4 S228P, lambda)
heavy: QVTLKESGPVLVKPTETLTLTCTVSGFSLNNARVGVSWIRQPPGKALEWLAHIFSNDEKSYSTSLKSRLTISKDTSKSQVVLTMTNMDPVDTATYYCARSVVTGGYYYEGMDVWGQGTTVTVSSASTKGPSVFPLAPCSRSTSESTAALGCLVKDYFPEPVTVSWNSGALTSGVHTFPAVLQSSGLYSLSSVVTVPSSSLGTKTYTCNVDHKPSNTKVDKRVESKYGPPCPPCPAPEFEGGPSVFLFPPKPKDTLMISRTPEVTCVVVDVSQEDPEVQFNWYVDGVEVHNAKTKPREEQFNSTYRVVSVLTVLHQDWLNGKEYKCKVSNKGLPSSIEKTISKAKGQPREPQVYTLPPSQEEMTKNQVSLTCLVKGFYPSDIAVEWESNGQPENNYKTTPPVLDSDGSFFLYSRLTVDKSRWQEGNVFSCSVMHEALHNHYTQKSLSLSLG
light: B43 light with E50A
B45: Ab0351 (antibody, human IgG4 S228P, lambda)
heavy: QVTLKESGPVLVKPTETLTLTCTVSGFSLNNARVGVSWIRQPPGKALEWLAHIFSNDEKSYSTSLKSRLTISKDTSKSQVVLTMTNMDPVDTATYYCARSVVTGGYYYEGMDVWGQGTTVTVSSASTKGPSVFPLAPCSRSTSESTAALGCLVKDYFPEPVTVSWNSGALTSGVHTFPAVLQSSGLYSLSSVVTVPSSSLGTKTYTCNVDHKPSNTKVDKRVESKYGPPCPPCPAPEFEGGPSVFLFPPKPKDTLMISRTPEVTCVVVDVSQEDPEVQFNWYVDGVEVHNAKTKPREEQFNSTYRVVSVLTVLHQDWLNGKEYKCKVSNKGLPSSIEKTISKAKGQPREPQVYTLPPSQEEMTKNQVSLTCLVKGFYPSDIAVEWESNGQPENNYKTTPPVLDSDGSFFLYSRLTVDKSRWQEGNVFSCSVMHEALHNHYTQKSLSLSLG
light: B43 light with S49E

These binders were tested against human FGFR1c + KLB receptor complex on HEK293 iLite FGF21 reporter cells (human, UniProt P11362 22-822; Q86Z14 1-1044) (assay: cell-based or functional assay).
Chain of human FGFR1c + KLB receptor complex on HEK293 iLite FGF21 reporter cells (P11362 22-822, chain 1 of 2): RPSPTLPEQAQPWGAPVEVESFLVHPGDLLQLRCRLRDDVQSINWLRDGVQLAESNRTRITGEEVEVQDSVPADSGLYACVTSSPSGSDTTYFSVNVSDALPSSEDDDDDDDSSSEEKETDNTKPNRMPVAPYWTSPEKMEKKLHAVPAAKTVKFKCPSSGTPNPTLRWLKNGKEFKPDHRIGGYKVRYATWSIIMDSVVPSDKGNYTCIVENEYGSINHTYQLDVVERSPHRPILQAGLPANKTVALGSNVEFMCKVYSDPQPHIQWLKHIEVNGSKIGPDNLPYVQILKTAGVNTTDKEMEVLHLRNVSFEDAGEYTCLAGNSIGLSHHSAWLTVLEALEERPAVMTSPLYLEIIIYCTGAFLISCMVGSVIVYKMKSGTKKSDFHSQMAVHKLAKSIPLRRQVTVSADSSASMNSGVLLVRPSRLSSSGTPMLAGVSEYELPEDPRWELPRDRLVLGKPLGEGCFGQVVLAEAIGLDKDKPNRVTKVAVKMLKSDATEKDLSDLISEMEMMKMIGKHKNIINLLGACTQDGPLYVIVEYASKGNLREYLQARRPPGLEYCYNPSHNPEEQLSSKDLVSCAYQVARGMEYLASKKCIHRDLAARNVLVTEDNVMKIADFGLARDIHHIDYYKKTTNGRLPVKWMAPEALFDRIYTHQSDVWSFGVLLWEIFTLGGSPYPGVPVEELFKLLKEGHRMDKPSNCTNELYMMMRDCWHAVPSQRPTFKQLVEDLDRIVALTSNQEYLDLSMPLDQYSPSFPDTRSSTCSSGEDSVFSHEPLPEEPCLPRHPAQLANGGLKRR
Chain of human FGFR1c + KLB receptor complex on HEK293 iLite FGF21 reporter cells (Q86Z14 whole entry, chain 2 of 2): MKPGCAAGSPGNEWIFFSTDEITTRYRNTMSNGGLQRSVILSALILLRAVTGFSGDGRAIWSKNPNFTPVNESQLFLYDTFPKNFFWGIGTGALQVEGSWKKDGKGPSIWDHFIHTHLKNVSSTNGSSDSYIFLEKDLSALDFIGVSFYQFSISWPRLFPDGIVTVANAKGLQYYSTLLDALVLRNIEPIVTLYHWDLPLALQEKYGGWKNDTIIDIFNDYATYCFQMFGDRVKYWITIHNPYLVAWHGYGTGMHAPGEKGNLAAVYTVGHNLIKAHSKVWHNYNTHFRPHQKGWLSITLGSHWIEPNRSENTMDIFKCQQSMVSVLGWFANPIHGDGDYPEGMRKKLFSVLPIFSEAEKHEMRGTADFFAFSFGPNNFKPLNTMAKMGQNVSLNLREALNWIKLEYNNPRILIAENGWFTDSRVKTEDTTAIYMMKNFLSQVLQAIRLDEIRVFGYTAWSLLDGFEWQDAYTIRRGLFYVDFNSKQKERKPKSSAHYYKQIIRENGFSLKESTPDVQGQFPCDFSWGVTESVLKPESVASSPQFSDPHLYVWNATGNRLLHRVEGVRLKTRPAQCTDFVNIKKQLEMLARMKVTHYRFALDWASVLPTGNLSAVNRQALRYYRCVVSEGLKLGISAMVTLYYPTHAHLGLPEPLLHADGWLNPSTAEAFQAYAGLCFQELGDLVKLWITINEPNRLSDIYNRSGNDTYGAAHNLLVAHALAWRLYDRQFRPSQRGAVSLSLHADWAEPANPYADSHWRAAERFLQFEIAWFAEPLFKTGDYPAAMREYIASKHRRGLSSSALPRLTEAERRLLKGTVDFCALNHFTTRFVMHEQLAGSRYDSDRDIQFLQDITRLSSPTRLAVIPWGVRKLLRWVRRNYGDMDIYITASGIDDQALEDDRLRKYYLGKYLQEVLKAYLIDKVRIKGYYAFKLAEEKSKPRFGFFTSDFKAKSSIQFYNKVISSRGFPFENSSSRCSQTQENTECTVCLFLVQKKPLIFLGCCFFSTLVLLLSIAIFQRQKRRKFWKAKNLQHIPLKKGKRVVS

Question: How did the EC50 turn out when B1 was run?
Answer: 208 nM

Question: And the Emax?
Answer: 647%

Question: B2 was tested. Which EC50 did it give?
Answer: 0.3 nM

Question: And the Emax?
Answer: 817%

Question: What does the source list for B3?
Answer: EC50: 4.59 nM; Emax: 443%

Question: Which results are given for B4?
Answer: EC50: 1.29 nM; Emax: 699%

Question: For B5, which EC50 is on record?
Answer: 4.11 nM

Question: And the Emax?
Answer: 421%

Question: For B6, which EC50 is on record?
Answer: 0.3 nM

Question: And the Emax?
Answer: 698%

Question: Which results are given for B7?
Answer: EC50: 0.37 nM; Emax: 806%

Question: B8 was tested. Which EC50 did it give?
Answer: > 100 nM

Question: How did the EC50 turn out when B9 was run?
Answer: 0.45 nM

Question: And the Emax?
Answer: 730%

Question: With B10 as the binder, how does the EC50 read?
Answer: 0.17 nM

Question: And the Emax?
Answer: 968%

Question: B11 was tested. Which EC50 did it give?
Answer: > 100 nM

Question: B12 was tested. Which EC50 did it give?
Answer: > 100 nM

Question: How did the EC50 turn out when B13 was run?
Answer: > 100 nM

Question: How did the EC50 turn out when B14 was run?
Answer: > 100 nM

Question: For B15, which EC50 is on record?
Answer: > 100 nM

Question: How did the EC50 turn out when B16 was run?
Answer: > 100 nM

Question: With B17 as the binder, how does the EC50 read?
Answer: > 100 nM

Question: For B18, which EC50 is on record?
Answer: > 100 nM

Question: Which EC50 does the source give for B19 here?
Answer: > 100 nM

Question: Which EC50 does the source give for B20 here?
Answer: > 100 nM

Question: B21 was tested. Which EC50 did it give?
Answer: > 100 nM

Question: How did the EC50 turn out when B22 was run?
Answer: > 100 nM

Question: With B23 as the binder, how does the EC50 read?
Answer: > 100 nM

Question: Which EC50 does the source give for B24 here?
Answer: > 100 nM

Question: What about the Emax of the same binder?
Answer: 171%

Question: Which EC50 does the source give for B25 here?
Answer: > 100 nM

Question: Which EC50 does the source give for B26 here?
Answer: > 100 nM

Question: For B27, which EC50 is on record?
Answer: > 100 nM

Question: B28 was tested. Which EC50 did it give?
Answer: > 100 nM

Question: B29 was tested. Which EC50 did it give?
Answer: > 100 nM

Question: With B30 as the binder, how does the EC50 read?
Answer: > 100 nM

Question: B31 was tested. Which EC50 did it give?
Answer: > 100 nM

Question: How did the EC50 turn out when B32 was run?
Answer: > 100 nM

Question: Which EC50 does the source give for B33 here?
Answer: > 100 nM

Question: B34 was tested. Which EC50 did it give?
Answer: > 100 nM

Question: B35 was tested. Which EC50 did it give?
Answer: > 100 nM

Question: Which EC50 does the source give for B36 here?
Answer: > 100 nM

Question: How did the EC50 turn out when B37 was run?
Answer: > 100 nM

Question: Which EC50 does the source give for B38 here?
Answer: > 100 nM

Question: With B39 as the binder, how does the EC50 read?
Answer: > 100 nM

Question: Which EC50 does the source give for B40 here?
Answer: > 100 nM

Question: B41 was tested. Which EC50 did it give?
Answer: > 100 nM

Question: How did the EC50 turn out when B42 was run?
Answer: > 100 nM

Question: How did the EC50 turn out when B43 was run?
Answer: 0.04 nM

Question: What about the Emax of the same binder?
Answer: 1090%

Question: B44 was tested. Which EC50 did it give?
Answer: 0.04 nM

Question: What about the Emax of the same binder?
Answer: 1220%

Question: Which results are given for B45?
Answer: EC50: 0.03 nM; Emax: 1040%
